Assay results: patent US5747660A, “Nucleic acid encoding prostaglandin F2α receptor regulatory protein” (priority 1995, dated 1998)
“And” between values parts separate entries of the source, which are not always exact repeats. Identical values can stand only once. Like-named read-outs stand apart in the source and are kept apart here. Each block holds one molecule with its values, some of them ahead of it.

Key:
[1] = tested on: prostaglandin F2α receptor (FP); experiment: Effect of intracellular messenger altering agents on [3H]PGF2α binding and on FPRP inhibition of it; assay type: cell-based
Method: In a third experiment, transfected cells were treated for 30 min with exposure to the following: phorbol 12-myristate 13-acetate 10^-8 M, prostaglandin E1, 10^-7 M, A23187 10^-6 M, okadaic acid 10^-6 M, or 8-Br-cAMP 10^-5 M (Table 4).
The effect of brefeldin A (3 μg/ml, 2 hr), chloroquine (100 μM, 6 hr) and tunicamysin (2.5 μg/ml, 20 hr) was determined.

[2] = target: prostaglandin F2α receptor (FP)
[3] = target: prostaglandin F2α receptor (FP); details: literature value; read-out: [^3 H]PGF2α binding affinity reported by Ito et al. (1994); cited from earlier work
[4] = tested on: prostaglandin F2α receptor (FP); experiment: [3H]PGF2α specific binding to COS cells cotransfected with FP cDNA and a test cDNA construct; assay type: cell-based, rat, mouse
[5] = tested on: COS cells (endogenous specific [3H]PGF2α binding); experiment: [3H]PGF2α binding to COS cell cultures transfected with FPRP cDNA construct alone; assay type: cell-based; details: COS cells transfected with FPRP cDNA construct only, 24 h
Method: COS cells were electroporated, cultured for 24 h and analyzed for specific [^3 H]PGF2α binding. Total transfected DNA is indicated on the abscissa. Data points represent mean±standard deviation, n=3.
Methods. COS-1 cells were used for transient expression experiments. Briefly, 70-80% confluent cultures (grown in Ham's F-12 media plus 8% fetal bovine serum, with media replacement 24 hours prior to transfection)were harvested with a trypsin/EDTA solution (final concentration: 0.02% ethylenediaminetetracetic acid, 0.05% sodium bicarbonate, and 0.5% Enzart 40x trypsin), washed twice with culture media, then resuspended in ice cold culture media at approximately 1.66×10^7 cells per ml. Aliquots of 0.15 ml (2.5×10^6 cells) were placed in electroporation cuvettes (BioRad, Hercules, Calif.) along with plasmid DNA, placed on ice for 10 minutes, electroporated with a Bio Rad electroporater (settings: 250 μF, […], .infin..OMEGA., 0.4 cm cuvette), 1 ml of ice cold culture media was added and the cells were left on ice for 10 minutes before plating.
The binding incubation was at 37° for 20 minutes.

[6] = tested on: prostaglandin F2α receptor (FP); remark: listed apart in the source
Method: Models for FPRP interaction with FP were tested as follows. First, a conditioned media experiment was performed with either the pSGS vector, or the FPRP cDNA construct transfected into COS cells. Following plating and culture of these transfected cells for 24 hours the media in which the cells were grown was placed on cultures of cells transfected with FP. The cells transfected with FP and cultured with the conditioned medium for 4 hours were then analyzed for [^3 H]PGF2α binding. In a second experiment, FPRP or pSG5 were transfected as described above into one set of cells, FP alone into a second set of cells, and the cells co-cultured in the ratios shown in Table 3.
Briefly, COS cells were transfected with FP, pSG5, or FPRP, and plated. 24 h post transfection, media was removed from the pSG5 and FPRP transfected cultures, centrifuged 7 min at 1000×g, and added back to the FP culture media at the indicated ratios. Following 4 h of this media treatment, [^3 H]PGF2α binding was analyzed. As a control, FP and FPRP were cotransfected. For co-cultured cells, COS cells were transfected with FP, pSG5, or FPRP, mixed at a 1:1 ratio and cultured. As a control, cells were either transfected with FP or FP+FPRP.

[7] = tested on: prostaglandin F2α receptor (FP); experiment: Cotransfection of a third construct along with FP and FPRP, [3H]PGF2α binding; assay type: cell-based; details: FP + FPRP, no third construct; FP + pSG5 = 100
Description: Therefore, a strategy based on cotransfection of a third construct (along with FP and FPRP) was pursued. These third party constructs included ones coding for the protease inhibitors alpha-l trypsin inhibitor and crmA, an inhibitor of cell death, bcl2, and few nonspecific control molecules including the vitamin D receptor, a secreted immunoglobulin molecule, and the empty parent vector pSG5 only. All groups and treatments were compared with control treatment of FP+pSG5 vs. FP+FPRP.

[8] = tested on: prostaglandin F2α receptor (FP); remark: listed apart in the source
Method: Cells transfected with either FP and pSG5 or FP and FPRP were plated in normal media containing serum and at either 21 h, 6 h or 0 h prior to [^3 H]PGF2α binding analysis had their media replaced with serum deficient medium, in order to obviate any effects due to hormones or factors present in the added serum.

[9] = target: prostaglandin F2α receptor (FP), cDNA construct whose species the place does not tell
[10] = target: prostaglandin F2α receptor (FP), cDNA construct whose species the place does not tell; remark: listed apart in the source
[11] = tested on: prostaglandin F2α receptor (FP); experiment: [3H]PGF2α binding in COS cells co-transfected with FP and an FPRP variant construct; details: 3.5 μg FP cDNA construct and 5 μg test cDNA construct
[12] = control treatment (EtOH vehicle or Control), no agent

effect of agent on basal [^3 H]PGF2α binding ([1]; FP transfected cells pretreated with the agent): decreased subsequent basal FP binding | Kd ([2]; read-out: [^3 H]PGF2α binding affinity, FP + pSG5, asFPRP, FPRP or dssFPRP: all 4 treatments similar): 8 nM
Molecule: CCCCC[C@H](O)/C=C/[C@@H]1[C@@H](C/C=C\CCCC(=O)O)[C@@H](O)C[C@H]1O [PGF2α, Prostaglandin F2α]
% Control [^3 H]PGF2α Binding, FP + FPRP ([1]; FP + FPRP transfected cells treated with the agent): 40 ± 3% | % Control [^3 H]PGF2α Binding, FP + pSG5 ([1]; FP + pSG5 transfected cells treated with the agent): 73 ± 9% | % Inhibition (FPRP inhibition of [^3 H]PGF2α binding) ([1]; in presence of the agent at the concentration/time given): 45% | Kd [3]: 25 nM

% Control [^3 H]PGF2α Binding ([6]; FP + FPRP cotransfection pos. control of the conditioned media experiment): 43 ± 5% | % Control [^3 H]PGF2α Binding ([6]; FP + FPRP cotransfection positive control of the co-culture experiment): 45 ± 3% | % Control [^3 H]PGF2α Binding ([6]; FP cells + 1:2 media from FPRP transfection, 4 h): 103 ± 10% | % Control [^3 H]PGF2α Binding ([6]; FP cells + 1:4 media from FPRP transfection, 4 h): 112 ± 10% | % Control [^3 H]PGF2α Binding ([6]; FP cells + 1:8 media from FPRP transfection, 4 h): 113 ± 11% | % Control [^3 H]PGF2α Binding ([6]; FP transfected cells co-cultured 1:1 with FPRP transfected cells): 120 ± 10% | ability to inhibit [^3 H]PGF2α binding to FP ([6]; conditioned media or co-culture type experiments): unable to inhibit | % Control [^3 H]PGF2α Binding, FP + FPRP [1, 12]: 52 ± 3% and 37 ± 3% | % Inhibition (FPRP inhibition of [^3 H]PGF2α binding) [1, 12]: 48% and 63% | % Control [^3 H]PGF2α Binding [7]: 37 ± 5% | % Control [^3 H]PGF2α Binding ([8]; Serum Removal: t = 1 h): 38 ± 7% | % Control [^3 H]PGF2α Binding ([8]; Serum Removal: t = -6 h): 48 ± 4% | % Control [^3 H]PGF2α Binding ([8]; Serum Removal: t = -21 h): 41 ± 3% | effect of growth in serum deficient media on percent of FPRP inhibition ([8]; serum deficient medium 21 h, 6 h or 0 h prior to binding): did not alter | inhibition of [^3 H]PGF2α binding to FP ([2]; saturation binding experiment, FP + FPRP cotransfection): approximately 60% | type of inhibition of [^3 H]PGF2α binding ([2]; saturation binding, Scatchard analysis): non-competitive inhibitor
B1: FPRP: rat prostaglandin F2α receptor regulatory protein (SEQ ID NO:1), expressed from FPRP cDNA in pSG5, construct 232 (SEQ ID NO:10) (protein)
chain: MGRPAPRPLLLALLSLAVCRGRVVRVPAGTLVRVVGTELVIPCNVSDYDGPSEQNFDWSFSSSGSSFVELASTWEVGFPAQQYRERLQRGDILLRRTANDAVELHIKNVQPSDQGHYKCSTPSTDATVQGNYEDTMQVKVLADALVVGPSSRPPPGLSLREGEPFELRCIASTTSPLHTHLALRWELHRGPVHRSILALSHEGRFHPGPGYEQRYHSGDVRLDTVGSDAYRLSVARALSADQGSYRCVVSEWITEQGSWQEIQEKAVEVATVVIQPTALQLAVPRTVSVTEGKDLDLSCNITTDRVDDVRPEVTWYFKKTPDTSLLASHMLARLDRDSLVHSSPHVALSHVDTRSYHLLVRDVSKENSGYYLCLVALWAPGHNRSWHKVAEAMSAPSGVSVTWLEPEYQVYLNASKVPGFSDDPTELQCRVIDTKRVDAGVRLTVSWYYRMNRRNDDVVASELLAVMDGDWTLRYGERSKQRAQDGEFIFSKEHTDTFSFRIQRTTEEDRGSYYCVVSAWTRQRNSSWVKSKDVFSKPVNIFWASEDSVLVVKARQPKPFFAAGNTFEMTCKVSSKNIKSPRYSVLITAEKPVGDLSSPNETKYIISLDQDSVVKLENWTDASRVDGVVLEKVQEDEFRYRMYQTQVSDAGLYRCMVTAWSPIGGSLWREAATSLSNPIEIDFQTSGPIFNASVHSDTLSVTRGDLIKLFCIVTVDGAVLDPDDMAFDVSWFAVHSFGLDKAPILLSSLDRKGVVTTGQRDWKSTVSLERVSVLEFLLQVHGSEDQDFGNYYCSVTPWVRSPTGSWQREAEIHSRPIFITVKMDVLNAFKYPLLIGVGLSTVIRLLSCLIGYCSSHWCCKKEVRETRRERRRLMSMEMD
% CONTROL, [^3 H]PGF2α specific binding ([4]; COS cells cotransfected with FP + the named DNA, FP alone = 100): 30-50% | inhibitory activity of FPRP on [^3 H]PGF2α binding ([4]; COS cells nearly 100% confluent, media replaced ≈48 h prior to transfection): approximately 60% | % CONTROL [^3 H]PGF2α BINDING (FPRP inhibitory activity) ([4]; Standard: 80% confluent cells, 40 μg/dish post-electroporation, binding assay at 24 h): 30-50% | % CONTROL [^3 H]PGF2α BINDING (FPRP inhibitory activity) ([4]; binding buffer of Weipz et al. (1992), pH 6.0): 53 ± 8% | % CONTROL [^3 H]PGF2α BINDING (FPRP inhibitory activity) ([4]; binding buffer: standard buffer pH 6.0): 41 ± 5% | % CONTROL [^3 H]PGF2α BINDING (FPRP inhibitory activity) ([4]; binding buffer: standard buffer pH 7.0): 45 ± 3% | effect on [^3 H]PGF2α binding to FP ([4]; cotransfection with rFP or mFP): inhibited rFP and mFP equally | % CONTROL [^3 H]PGF2α BINDING (FPRP inhibitory activity) ([4]; density of cells post-electroporation: 40 μg/dish): 40 ± 5% | % CONTROL [^3 H]PGF2α BINDING (FPRP inhibitory activity) ([4]; density of cells post-electroporation: 20-30 μg/dish): 30 ± 5% | % CONTROL [^3 H]PGF2α BINDING (FPRP inhibitory activity) ([4]; density of cells post-electroporation: 60-80 μg/dish): 43 ± 4% | % CONTROL [^3 H]PGF2α BINDING (FPRP inhibitory activity) ([4]; density of cells prior to electroporation: 60-70% confluent): 35 ± 3% | % CONTROL [^3 H]PGF2α BINDING (FPRP inhibitory activity) ([4]; density of cells prior to electroporation: 80% confluent): 40 ± 5% | % CONTROL [^3 H]PGF2α BINDING (FPRP inhibitory activity) ([4]; density of cells prior to electroporation: 100% confluent): 38 ± 4% | % CONTROL [^3 H]PGF2α BINDING (FPRP inhibitory activity) ([4]; time between electroporation and binding: 24 hr): 36 ± 3% | % CONTROL [^3 H]PGF2α BINDING (FPRP inhibitory activity) ([4]; time between electroporation and binding: 48 hr): 33 ± 3% | effect of FPRP expression on [^3 H]PGF2α binding [5]: marked, dose dependent decrease | decrease of viability of the transfected cells (COS cells): 20-60%

% control ^3 H!PGF2α binding, co-culture of FPRP transfected cells with FP transfected cells 1:1 [9]: 120 % control | % control ^3 H!PGF2α binding, conditioned media from FPRP transfected cells on FP transfected cells [9]: 103 % control | inhibition of ^3 H!PGF2α binding, saturation binding experiment [10]: 60%
B2: rat prostaglandin F2α receptor regulatory protein (FPRP) (protein)
chain: RVVRVPAGTLVRVVGTELVIPCNVSDYDGPSEQNFDWSFSSSGSSFVELASTWEVGFPAQQYRERLQRGDILLRRTANDAVELHIKNVQPSDQGHYKCSTPSTDATVQGNYEDTMQVKVLADALVVGPSSRPPPGLSLREGEPFELRCIASTTSPLHTHLALRWELHRGPVHRSILALSHEGRFHPGPGYEQRYHSGDVRLDTVGSDAYRLSVARALSADQGSYRCVVSEWITEQGSWQEIQEKAVEVATVVIQPTALQLAVPRTVSVTEGKDLDLSCNITTDRVDDVRPEVTWYFKKTPDTSLLASHMLARLDRDSLVHSSPHVALSHVDTRSYHLLVRDVSKENSGYYLCLVALWAPGHNRSWHKVAEAMSAPSGVSVTWLEPEYQVYLNASKVPGFSDDPTELQCRVIDTKRVDAGVRLTVSWYYRMNRRNDDVVASELLAVMDGDWTLRYGERSKQRAQDGEFIFSKEHTDTFSFRIQRTTEEDRGSYYCVVSAWTRQRNSSWVKSKDVFSKPVNIFWASEDSVLVVKARQPKPFFAAGNTFEMTCKVSSKNIKSPRYSVLITAEKPVGDLSSPNETKYIISLDQDSVVKLENWTDASRVDGVVLEKVQEDEFRYRMYQTQVSDAGLYRCMVTAWSPIGGSLWREAATSLSNPIEIDFQTSGPIFNASVHSDTLSVTRGDLIKLFCIVTVDGAVLDPDDMAFDVSWFAVHSFGLDKAPILLSSLDRKGVVTTGQRDWKSTVSLERVSVLEFLLQVHGSEDQDFGNYYCSVTPWVRSPTGSWQREAEIHSRPIFITVKMDVLNAFKYPLLIGVGLSTVIRLLSCLIGYCSSHWCCKKEVRETRRERRRLMSMEMD
inhibitory activity of FPRP variant on [^3 H]PGF2α binding [11]: may be slightly more active at lower concentrations but does not inhibit quite as well as native FPRP (construct 232) at high concentrations
